Results reported in US20240026017A1 (Kyowa Kirin, published 2024).

T1: human CCR3 (human, UniProt P51677 1-355)
T1 construct: whole, on cells; also called hCCR3; CHO-S-hCCR3 (expressing cells)
T1 sequence (looked up): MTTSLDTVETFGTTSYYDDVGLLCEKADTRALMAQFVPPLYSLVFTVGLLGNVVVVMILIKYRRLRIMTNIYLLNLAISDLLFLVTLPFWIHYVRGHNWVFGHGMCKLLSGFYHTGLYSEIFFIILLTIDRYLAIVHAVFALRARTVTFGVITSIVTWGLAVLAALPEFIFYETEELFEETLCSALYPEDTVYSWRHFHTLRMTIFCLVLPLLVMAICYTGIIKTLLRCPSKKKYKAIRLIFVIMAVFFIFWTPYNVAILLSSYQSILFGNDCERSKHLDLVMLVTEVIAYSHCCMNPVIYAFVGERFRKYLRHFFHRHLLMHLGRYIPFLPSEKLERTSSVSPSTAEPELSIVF

T2: human CC chemokine receptor 1 (human CCR1) (human, UniProt P32246 1-355)
T2 construct: endogenous on THP-1 cells in the migration assays; also called hCCR1; CHO-S-hCCR1 (expressing cells)
T2 sequence: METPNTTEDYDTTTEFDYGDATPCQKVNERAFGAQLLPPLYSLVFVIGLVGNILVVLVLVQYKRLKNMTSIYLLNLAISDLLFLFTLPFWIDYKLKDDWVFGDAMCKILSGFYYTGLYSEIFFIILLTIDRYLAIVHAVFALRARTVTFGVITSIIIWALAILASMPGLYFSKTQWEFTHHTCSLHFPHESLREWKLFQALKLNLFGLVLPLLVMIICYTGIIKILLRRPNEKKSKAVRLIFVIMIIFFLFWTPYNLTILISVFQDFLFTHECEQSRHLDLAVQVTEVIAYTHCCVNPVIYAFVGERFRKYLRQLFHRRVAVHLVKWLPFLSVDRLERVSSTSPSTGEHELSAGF


These binders were tested against T1, human CCR3 (assay: flow cytometry on CHO-S-hCCR3 cells, hybridoma culture supernatant diluted 10-fold).
Excerpt: As test antibodies, each hybridoma culture supernatant diluted 10-fold, an existing mouse anti-human CCR1 monoclonal antibody 53504 antibody (R & D Technologies), and a mouse anti-human CCR3 monoclonal antibody 444-11 antibody (MBL) were used.
Regarding the measurement results, the fluorescence intensity when a certain cell was stained with a certain test antibody (each hybridoma culture supernatant, 53504 antibody or 444-11 antibody) and a secondary antibody was divided by the fluorescence intensity when the cell was stained only with the secondary antibody. […] In Table 2, the results are indicated as A and B, respectively.

| fluorescence intensity ratio (test antibody + secondary / secondary only) [fold] | Binder |
| --- | --- |
| < 10 | KM5954 antibody (antibody, mouse IgG2a, V domains shown, mouse IgG2a from hybridoma) VH: QVQLKESGPGLVAPSQSLSITCTVSGFSLPRYTITWVRQPPGKGLEWLGLIRTGGGTIYNSALKSRLSISKDNSKSQVFLKMNSLQSGDTARYYCARNGAYYSKSGSYWYFDVWGTGTTVTVSS VL: QIVLTQSPAIMSVSLGEEITLTCSASSSVSYMHWYQQKSGTSPKLLIYSTSNLASGVPSRFSGSGSGTFYSLTISSVEAEDAADYYCHQWSSHPCTFGGGTKLEIK |
| < 10 | KM5956 antibody (antibody, mouse IgG2a, V domains shown, mouse IgG2a from hybridoma) VH: QVQLKESGPGLVAPSQSLSITCTVSGFSLARYTITWVRQPPGKGLEWLGLIRTGGGTIYNSALKSRLSISKDNSKSQVFLKMNSLQSGDTARYYCARNGAYYSNSGSYWYFDVWGTGTTVTVSS VL: QIVLTQSPAIMSASLGEEITLTCSASSSVTYMHWYQQKSGTSPKLLIYSTSNLASGVPSRFSGSGSGTFYSLTISSVEAEDAADYYCHQWSSHPCTFGGGAKLEIK |
| < 10 | KM5908 antibody (antibody, mouse IgG2a, V domains shown, mouse IgG2a from hybridoma) VH: QVQLKQSGPGLVQPSQSLSITCTVSGFSLNNYGVHWVRQPPGKGLEWLGVIWSAGTTVYNAAFISRLSISKDDSKSQVFFKMNSLQAGDTAIYYCAKDGSRYYTAMDYWGQGTSVTVSS VL: DVVMTQTPRSLPVSLGDQASISCRSRQSLIHSNGITFLHWYLQKAGQSPKLLIYKVSNRFSGVPDRFSGSGSGTDFTLRISRVEAEDLGVYFCSQGTHVPPTFGGGTKLEIK |
| < 10 | KM5911 antibody (antibody, mouse IgG2b, V domains shown, mouse IgG2b from hybridoma) VH: DVKLVESGEGLVKPGGSLKLSCAASGFTFSRNAMSWVRQTPEKRMEWVAYISSGGDYIYYADTVKGRFTVSRDNARNTLYLRMSSLKSEDTAMYYCTRFSYGYAKNALDYWGQGTSVTVSS VL: DIQMTQSPSSLSASLGGKVTITCKASQDIKKYIAWYQHKPGKGPRLLIHYTSSLQPGIPSRFSGSGSGRDYSFSISNLEPEDIATYYCLQYDYLMTFGGGTKLEIK |
| < 10 | KM5916 antibody (antibody, mouse IgG2b, V domains shown, mouse IgG2b from hybridoma) VH: DVKLVESGEGLVKPGGSLKLSCAASGFTFSRNAMSWVRQTPEKRLEWVAYISSGSDYIYYADTVKGRFTVSRDNARNTLYLQMTSLRSEDTAMYFCTRFSYGYGKNAPDYWGQGTSVTVSS VL: DIQMTQSPSSLSASLGGKVTITCKASQDINKYIAWYQHKPGQGPRLLIHYTSSLQPGIPSRFSGSGSGRDYSFSISNLEPEDIATYYCLQYDYTMTFGGGTKLEIR |
| < 10 | KM5907 antibody (antibody, mouse IgG1, V domains shown, mouse IgG1 from hybridoma) VH: EVQVVESGGNLVKPGGSLKLSCSASGFTFSRYGMSWVRQTPDKRLEWVASISATFTYTYYTDNVKGRFTISRDNAKNTLYLQMSSLRSEDTGMYYCTRQDNYAWFDSWGQGTLVTVSA VL: DVLMTQTPLSLPVSLGDQVSISCRSSQSIVHSNGNTFLEWYLKKPGQSPKLLIYKVSSRFSGVPDRFSGSGSGTDFTLKIRRVEADDLGVYYCFQGSHIPWTFGGGTNLEIK |
| < 10 | KM5909 antibody (antibody, mouse IgG1, V domains shown, mouse IgG1 from hybridoma) VH: EVQLVESGGDLVKPGGSLKLSCAASGFTLSNYGMSWVRQTPDKRLEWVASISIGNYIYYLDSVKGRFTIYRDNAKNTLFLQMRSLKSEDTAMYHCARQGNDYDWFTYWGQGTLVTVSA VL: DVLMTQTPLSLPVSLGDQASISCRSSQSVVHTNGNTYLEWYLQKPGQSPKLLIYKVSNRFSGVPDRFSGSGSGTDFTLKINRVEAEDLGVYYCFQGSHLPWTFGGGTKLEIK |
| < 10 | KM5915 antibody (antibody, mouse IgG2b, V domains shown, mouse IgG2b from hybridoma) VH: EVQLVESGGDLVKPGGSLKLSCAASGFTFSNYGMSWVRQTPDKRLEWVASISIGSYIYYLDSVKGRFTIYRDNAKNTLFLQMRSLKSEDTAMYHCARQGNDYDWFAYWGQGTLVTVSA VL: DVLMTQTPLSLPVSLGDQASISCRSSQNIVHTNGNTYLEWYLQKPGQSPKLLIYKVSNRFSGVPDRFSGSGSGTDFTLKISRVEAEDLGVYYCFQGSHLPWTFGGGTKLEIK |

The binders below were run against T2, human CC chemokine receptor 1 (human …) (assay: flow cytometry on CHO-S-hCCR1 cells; bound = fluorescence 10 times or more that of isotype control chDNP1).
Protocol: The antigen affinity of the chKM5908′ antibody, which is a VL-substituted chimeric antibody, was measured by flow cytometry using the CHO-S-hCCR1 cells produced in Example 2. The cells were collected by centrifugation, the supernatant was removed, and the cells were suspended in PBS (Staining Medium, hereinafter, abbreviated as SM) containing 2% fetal bovine serum (FBS), 0.05% NaN₃, and 1 mM EDTA. Next, the cells were seeded in a 96-well plate so that the number of cells is 1×10⁵ per well, and the chKM5908′ antibody was added at each final concentration of 10,000, 2,000, 400, 80, 16, and 3.2 ng/mL, and the reaction was performed at 4° C. for 60 minutes. After washing the cells with SM, Goat F (ab′)₂ Anti-Human IgG PE (γ chain specific) (Southern Biotech) diluted 500-fold with SM was added and reacted at 4° C. for 60 minutes. After washing the cells with SM, the cells were resuspended in 50 μL of SM, and the fluorescence intensity was measured by the flow cytometry (FACS Canto II, BD Biosciences).
1996 June; 33 (9):759-68, hereinafter, referred to as chDNP1)] were determined to be bound to the human CCR1.

| binding result | Binder |
| --- | --- |
| binds | chKM5908′ mut28 (antibody, V domains shown) VH: QVQLKQSGPGLVQPSQSLSITCTVSGFSLNNYGVHWVRQPPGKGLEWLGVTWSAGTTVYNAAFASRLSISKDDSKSQVFFKMNSLQAGDTAIYYCAKDGSRAYAAMDYWGQGTSVTVSS VL: DVVMTQTPLSLPVSLGDQASIFCRSSQSLVHRNGITFFHWYLQKPGQSPKLLIYKVSNKFSGVPDRFSGSGSGTDFTLKISRVAPDDLGVYFCSQGTHVPPTFGGGTKLEIK |
| binds | chKM5908′ mut32 (antibody, V domains shown) VH: QVQLKQSGPGLVQPSQSLSITCTVSGFSLNNYGVHWVRQPPGKGLEWLGVTWSAGTTVYNAAFASRLSISKDDSKSQVFFKMNSLQAGDTAIYYCAKDGSRAYAAMDYWGQGTSVTVSS VL: DVVMTQTPLSLPVSLGDQASIFCRSSQSLVHRNGITFAHWYLQKPGQSPKLLIYKISNRFSGVPDRFSGSGSGTDFTLKISRVAPDDLGVYFCSQGTHVPPTFGGGTKLEIK |
| binds | chKM5908′ mut29 (antibody, V domains shown) VH: QVQLKQSGPGLVQPSQSLSITCTVSGFSLNNYGVHWVRQPPGKGLEWLGVTWSAGTTVYNAAFISRLSISKDDSKSQVFFKMNSLQAGDTAIYYCAKDGSRYYTAMDYWGQGTSVTVSS VL: DVVMTQTPLSLPVSLGDQASIFCRSSQSLVHRNGITFAHWYLQKPGQSPKLLIYKISNRFSGVPDRFSGSGSGTDFTLKISRVAPDDLGVYFCSQGTHVPPTFGGGTKLEIK |
| binds | chKM5908′ mut31 (antibody, V domains shown) VH: QVQLKQSGPGLVQPSQSLSITCTVSGFSLNNYGVHWVRQPPGKGLEWLGVTWSAGTTAYNAAFASRLSISKDDSKSQVFFKMNSLQAGDTAIYYCAKDGSRYYTAMDYWGQGTSVTVSS VL: DVVMTQTPLSLPVSLGDQASIFCRSSQSLVHRNGITFAHWYLQKPGQSPKLLIYKISNRFSGVPDRFSGSGSGTDFTLKISRVAPDDLGVYFCSQGTHVPPTFGGGTKLEIK |
| binds | chKM5908′ mut30 (antibody, V domains shown) VH: QVQLKQSGPGLVQPSQSLSITCTVSGFSLNNYGVHWVRQPPGKGLEWLGVIWSAGTTVYNAAAISRLSISKDDSKSQVFFKMNSLQAGDTAIYYCAKDGSRYYTAMDYWGQGTSVTVSS VL: DVVMTQTPLSLPVSLGDQASIFCRSSQSLVHRNGITFAHWYLQKPGQSPKLLIYKISNRFSGVPDRFSGSGSGTDFTLKISRVAPDDLGVYFCSQGTHVPPTFGGGTKLEIK |
| binds | chKM5908′ mut27 (antibody, V domains shown) VH: QVQLKQSGPGLVQPSQSLSITCTVSGFSLNNYGVHWVRQPPGKGLEWLGVTWSAGTTAYNAAFASRLSISKDDSKSQVFFKMNSLQAGDTAIYYCAKDGSRYYTAMDYWGQGTSVTVSS VL: DVVMTQTPLSLPVSLGDQASIFCRSSQSLVHRNGITFFHWYLQKPGQSPKLLIYKVSNKFSGVPDRFSGSGSGTDFTLKISRVAPDDLGVYFCSQGTHVPPTFGGGTKLEIK |

Each binder was assayed against T2, human CC chemokine receptor 1 (human …) (assay: cell-based or functional assay).

| antibody concentration showing THP-1 migration inhibitory activity [µg/mL] | Binder |
| --- | --- |
| ≥ 0.3 | hzmAb5-06 LV5HV14 antibody (antibody, V domains shown) VH: QVQLQQSGPGLVKPSQTLSITCTVSGFSLNNYGVHWVRQPPGKGLEWLGVIWSAGTTVYNAAAISRLTISKDTSKNQVSFKMSSLTAADTAVYYCAKDGSRYYTAMDYWGQGTLVTVSS VL: DVVMTQSPLSLPVTLGEPASISCRSSQSLVHRNGITFFHWYLQKPGQSPKLLIYKISNRFSGVPDRFSGSGSGTDFTLKISRVEAEDVGVYFCSQGTHVPPTFGQGTKLEIK |
